According to patent publication US20150139990A1 (DAINIPPON SUMITOMO PHARMA, published 2015):
Positions count from the first letter of the chain named. Names may count otherwise.

How the values were obtained:
human CD81 mutant V135A = molecular target: T1, human CD81 mutant V135A (human, UniProt P60033 1-236, limits assumed); assay: ELISA
T1 construct: as m30; not shown: C-terminal V5 and 6xHis tags
T1 sequence: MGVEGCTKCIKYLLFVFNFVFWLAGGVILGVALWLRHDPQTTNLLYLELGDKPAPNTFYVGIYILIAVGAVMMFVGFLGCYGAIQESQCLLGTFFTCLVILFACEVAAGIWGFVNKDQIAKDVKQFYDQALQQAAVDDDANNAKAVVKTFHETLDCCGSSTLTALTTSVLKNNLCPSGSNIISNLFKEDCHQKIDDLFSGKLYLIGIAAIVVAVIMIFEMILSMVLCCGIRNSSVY

human CD81 mutant V169A = molecular target: T2, human CD81 mutant V169A (human, UniProt P60033 1-236, limits assumed); assay: ELISA
T2 construct: as m30; not shown: C-terminal V5 and 6xHis tags
T2 sequence: T1 sequence with A135V, V169A

human CD81 mutant A164T = molecular target: T3, human CD81 mutant A164T (human, UniProt P60033 1-236, limits assumed); assay: ELISA
T3 construct: as m30; not shown: C-terminal V5 and 6xHis tags
T3 sequence: T1 sequence with A135V, A164T

human CD81 mutant S168A = molecular target: T4, human CD81 mutant S168A (human, UniProt P60033 1-236, limits assumed); assay: ELISA
T4 construct: as m30; not shown: C-terminal V5 and 6xHis tags
T4 sequence: T1 sequence with A135V, S168A

human CD81 mutant I194A = molecular target: T5, human CD81 mutant I194A (human, UniProt P60033 1-236, limits assumed); assay: ELISA
T5 construct: as m30; not shown: C-terminal V5 and 6xHis tags
T5 sequence: T1 sequence with A135V, I194A

human CD81 mutant L165A = molecular target: T6, human CD81 mutant L165A (human, UniProt P60033 1-236, limits assumed); assay: ELISA
T6 construct: as m30; not shown: C-terminal V5 and 6xHis tags
T6 sequence: T1 sequence with A135V, L165A

human CD81 mutant A164V = molecular target: T7, human CD81 mutant A164V (human, UniProt P60033 1-236, limits assumed); assay: ELISA
T7 construct: as m30; not shown: C-terminal V5 and 6xHis tags
T7 sequence: T1 sequence with A135V, A164V

human CD81 mutant S168T = molecular target: T8, human CD81 mutant S168T (human, UniProt P60033 1-236, limits assumed); assay: ELISA
T8 construct: as m30; not shown: C-terminal V5 and 6xHis tags
T8 sequence: T1 sequence with A135V, S168T

human CD81 mutant V169L = molecular target: T9, human CD81 mutant V169L (human, UniProt P60033 1-236, limits assumed); assay: ELISA
T9 construct: as m30; not shown: C-terminal V5 and 6xHis tags
T9 sequence: T1 sequence with A135V, V169L

[1] = molecular target: T10, human CD81 on CD81-expressing cells (Jurkat E6.1, human PBMC, Ramos) (human, UniProt P60033 1-236); assay: cell-based or functional assay
T10 sequence: T1 sequence with A135V

relative binding affinity (human CD81 mutant V135A): < 20%
relative binding affinity (human CD81 mutant V169A): < 20%
relative binding affinity (human CD81 mutant A164T): < 20%
relative binding affinity (human CD81 mutant S168A): < 20%
relative binding affinity (human CD81 mutant I194A): < 20%
relative binding affinity (human CD81 mutant L165A): < 20%
relative binding affinity (human CD81 mutant A164V): < 20%
relative binding affinity (human CD81 mutant S168T): < 20%
relative binding affinity (human CD81 mutant V169L): < 20%
Jurkat chemotaxis (% of control IgG4) at 0.001 µg/mL [1]: 102%
Jurkat chemotaxis (% of control IgG4) at 0.01 µg/mL [1]: 79%
Jurkat chemotaxis (% of control IgG4) at 0.1 µg/mL [1]: 27%
Jurkat chemotaxis (% of control IgG4) at 1 µg/mL [1]: 5%
Jurkat chemotaxis (% of control IgG4) at 10 µg/mL [1]: 7%
B1: 002-F05 (antibody, human IgG4 S228P, lambda, V domains shown)
VH: EVQLLESGGGLVQPGGSLRLSCAASGFTFSSNYMSWVRQAPGKGLEWVSYISSSSTYTDYADSVKGRFTISRDNSKNTLYLQMNSLRAEDTAVYYCARYSYGRDDFDYWGQGTLVTVSS
VL: QSVLTQPASASGTPGQRVTISCTGSTSNIGAGYDTHWYQQLPGTAPKLLIYGNSNRPSGVPDRFSGSKSGTSASLAISGLRSEDEADYYCQSYDTNLNVWVFGGGTKLTVLG
notes: IgG4 S228P
